Measured values published in patent publication US10562936B2, “Ligands for integrin αvβ6, synthesis and uses thereof” (Technische Universitat Munchen, priority 2015, dated 2020).
Read-outs that look alike come from different tables or passages of the source. Square brackets hold non-standard residues; d marks the D form. NMeK = CN[C@@H](CCCCN)C(=O)O; dNMeK = CN[C@H](CCCCN)C(=O)O; Sar = CNCC(=O)O

B1: Compound 1, cyclic peptide A R G D L A A L p P (peptide)
peptide: cyclo(ARGDLAAL[dP]P)
notes: Comparative compound (*); also called Cpd
B2: Compound 14, cyclic peptide A R G D L A L Sar P (peptide)
peptide: cyclo(ARGDLAL[Sar]P)
SMILES: CC(C)C[C@@H]1NC(=O)[C@H](CC(=O)O)NC(=O)CNC(=O)[C@H](CCCNC(=N)N)NC(=O)[C@H](C)NC(=O)[C@@H]2CCCN2C(=O)CN(C)C(=O)[C@H](CC(C)C)NC(=O)[C@H](C)NC1=O
notes: Comparative compound (*)
B3: Compound 16, cyclic peptide A R G D L A L (NMe)k P (peptide)
peptide: cyclo(ARGDLAL[dNMeK]P)
notes: Comparative compound (*)
B4: linear peptide RTDLDSLRT (peptide)
peptide: RTDLDSLRT
notes: also called control peptide (plasma stability)
B5: Compound 20, cyclic peptide F R G D L A W p (NMe)K (peptide)
peptide: cyclo(FRGDLAW[dP][NMeK])
SMILES: CC(C)C[C@@H]1NC(=O)[C@H](CC(=O)O)NC(=O)CNC(=O)[C@H](CCCNC(=N)N)NC(=O)[C@H](Cc2ccccc2)NC(=O)[C@H](CCCCN)N(C)C(=O)[C@H]2CCCN2C(=O)[C@H](Cc2c[nH]c3ccccc23)NC(=O)[C@H](C)NC1=O
B6: Compound 21, cyclic peptide Y R G D L A F p (NMe)K (peptide)
peptide: YRGDLAFXX
modifications: head-to-tail cyclic; D-Pro (p) at position 8; N-methyl-Lys at position 9
B7: Compound 4, cyclic peptide A R G D L A L p P (peptide)
peptide: cyclo(ARGDLAL[dP]P)
SMILES: CC(C)C[C@@H]1NC(=O)[C@H](CC(=O)O)NC(=O)CNC(=O)[C@H](CCCNC(=N)N)NC(=O)[C@H](C)NC(=O)[C@@H]2CCCN2C(=O)[C@H]2CCCN2C(=O)[C@H](CC(C)C)NC(=O)[C@H](C)NC1=O
notes: also called Cpd
B8: Compound 11, cyclic peptide A R G D L A K p P (peptide)
peptide: cyclo(ARGDLAK[dP]P)
SMILES: CC(C)C[C@@H]1NC(=O)[C@H](CC(=O)O)NC(=O)CNC(=O)[C@H](CCCNC(=N)N)NC(=O)[C@H](C)NC(=O)[C@@H]2CCCN2C(=O)[C@H]2CCCN2C(=O)[C@H](CCCCN)NC(=O)[C@H](C)NC1=O
notes: also called Cpd; 11
B9: Compound 10, cyclic peptide A R G D L A F p P (peptide)
peptide: cyclo(ARGDLAF[dP]P)
SMILES: CC(C)C[C@@H]1NC(=O)[C@H](CC(=O)O)NC(=O)CNC(=O)[C@H](CCCNC(=N)N)NC(=O)[C@H](C)NC(=O)[C@@H]2CCCN2C(=O)[C@H]2CCCN2C(=O)[C@H](Cc2ccccc2)NC(=O)[C@H](C)NC1=O
notes: also called Cpd; 10
B10: Compound 12, cyclic peptide F R G D L A L p P (peptide)
peptide: cyclo(FRGDLAL[dP]P)
SMILES: CC(C)C[C@@H]1NC(=O)[C@H](CC(=O)O)NC(=O)CNC(=O)[C@H](CCCNC(=N)N)NC(=O)[C@H](Cc2ccccc2)NC(=O)[C@@H]2CCCN2C(=O)[C@H]2CCCN2C(=O)[C@H](CC(C)C)NC(=O)[C@H](C)NC1=O
notes: also called Cpd; 12
B11: Compound 8, cyclic peptide A R G D L D L p P (peptide)
peptide: cyclo(ARGDLDL[dP]P)
SMILES: CC(C)C[C@@H]1NC(=O)[C@H](CC(=O)O)NC(=O)CNC(=O)[C@H](CCCNC(=N)N)NC(=O)[C@H](C)NC(=O)[C@@H]2CCCN2C(=O)[C@H]2CCCN2C(=O)[C@H](CC(C)C)NC(=O)[C@H](CC(=O)O)NC1=O
notes: Comparative compound (*)

Legend:
[1] = molecular target: T1, integrin αvβ8 (soluble integrin) (UniProt P06756 31-992; P26012 43-684); test: solid-phase binding assay, competition; coated LAP, soluble αvβ8
T1 construct: Only 'soluble integrins' is said

[2] = molecular target: T2, integrin αvβ3 (soluble integrin) (UniProt P06756 31-992; P05106 27-718); test: solid-phase binding assay, competition; coated vitronectin, soluble αvβ3
T2 construct: Only 'soluble integrins' is said

[3] = molecular target: T3, integrin α5β1 (soluble integrin) (UniProt P08648 42-995; P05556 21-728); test: solid-phase binding assay, competition; coated fibronectin, soluble α5β1
T3 construct: Only 'soluble integrins' is said

[4] = molecular target: T2, integrin αvβ3 (soluble integrin); test: solid-phase binding assay, competition; coated vitronectin, soluble αvβ3; remark: listed apart in the source
[5] = molecular target: T4, integrin αvβ6 (soluble integrin) (UniProt P06756 31-992; P18564 22-707); test: solid-phase binding assay, competition; coated LAP, soluble αvβ6
T4 construct: Only 'soluble integrins' is said

[6] = molecular target: T1, integrin αvβ8 (soluble integrin); test: solid-phase binding assay, internal standard; coated LAP, soluble αvβ8
[7] = molecular target: T4, integrin αvβ6 (soluble integrin); test: solid-phase binding assay, internal standard; coated LAP, soluble αvβ6
[8] = molecular target: T2, integrin αvβ3 (soluble integrin); test: ratio of IC50s αvβ6:αvβ3, printed the other way round (6.1 for αvβ6 to 1 for αvβ3)

T3 sequence (P08648 42-995, chain 1 of 2): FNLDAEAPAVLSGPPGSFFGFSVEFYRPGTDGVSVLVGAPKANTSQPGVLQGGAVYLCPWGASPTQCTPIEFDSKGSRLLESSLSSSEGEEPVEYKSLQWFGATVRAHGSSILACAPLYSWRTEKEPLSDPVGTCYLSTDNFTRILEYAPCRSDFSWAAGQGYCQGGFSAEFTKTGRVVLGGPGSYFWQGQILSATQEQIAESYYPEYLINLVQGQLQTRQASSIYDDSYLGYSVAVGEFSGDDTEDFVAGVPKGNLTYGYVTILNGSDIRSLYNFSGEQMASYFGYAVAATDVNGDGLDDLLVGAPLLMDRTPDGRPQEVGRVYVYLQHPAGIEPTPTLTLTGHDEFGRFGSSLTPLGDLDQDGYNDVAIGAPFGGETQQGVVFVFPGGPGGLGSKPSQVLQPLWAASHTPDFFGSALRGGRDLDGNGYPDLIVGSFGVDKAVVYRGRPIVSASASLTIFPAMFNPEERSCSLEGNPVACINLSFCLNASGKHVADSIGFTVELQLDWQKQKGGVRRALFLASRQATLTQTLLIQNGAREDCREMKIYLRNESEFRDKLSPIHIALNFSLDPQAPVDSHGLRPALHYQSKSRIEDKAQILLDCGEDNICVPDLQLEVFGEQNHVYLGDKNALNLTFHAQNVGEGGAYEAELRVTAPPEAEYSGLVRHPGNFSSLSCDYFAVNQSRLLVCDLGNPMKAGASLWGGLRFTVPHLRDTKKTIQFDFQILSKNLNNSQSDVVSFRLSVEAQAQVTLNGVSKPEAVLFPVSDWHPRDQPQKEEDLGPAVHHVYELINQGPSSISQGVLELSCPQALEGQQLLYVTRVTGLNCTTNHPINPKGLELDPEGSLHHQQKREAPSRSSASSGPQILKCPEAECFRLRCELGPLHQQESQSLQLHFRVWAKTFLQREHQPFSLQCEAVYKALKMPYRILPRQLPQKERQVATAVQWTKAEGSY
T3 sequence (P05556 21-728, chain 2 of 2): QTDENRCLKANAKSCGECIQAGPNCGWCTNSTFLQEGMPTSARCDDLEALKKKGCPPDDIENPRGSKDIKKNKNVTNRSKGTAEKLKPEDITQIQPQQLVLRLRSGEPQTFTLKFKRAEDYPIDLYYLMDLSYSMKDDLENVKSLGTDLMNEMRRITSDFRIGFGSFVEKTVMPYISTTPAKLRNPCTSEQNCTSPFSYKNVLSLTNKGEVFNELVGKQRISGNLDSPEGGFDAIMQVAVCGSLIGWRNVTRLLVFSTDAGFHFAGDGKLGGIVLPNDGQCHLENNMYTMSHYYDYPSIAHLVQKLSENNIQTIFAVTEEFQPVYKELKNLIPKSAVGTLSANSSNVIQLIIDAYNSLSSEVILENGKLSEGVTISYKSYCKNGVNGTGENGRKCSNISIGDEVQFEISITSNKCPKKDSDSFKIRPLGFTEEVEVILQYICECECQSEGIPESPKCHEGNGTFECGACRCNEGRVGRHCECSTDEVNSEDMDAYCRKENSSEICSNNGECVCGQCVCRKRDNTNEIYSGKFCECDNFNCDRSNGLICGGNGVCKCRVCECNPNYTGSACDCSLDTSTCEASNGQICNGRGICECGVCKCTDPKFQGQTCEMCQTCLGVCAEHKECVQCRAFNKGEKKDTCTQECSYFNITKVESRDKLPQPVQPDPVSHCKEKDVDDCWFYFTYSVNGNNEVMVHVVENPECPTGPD
T4 sequence (P06756 31-992, chain 1 of 2): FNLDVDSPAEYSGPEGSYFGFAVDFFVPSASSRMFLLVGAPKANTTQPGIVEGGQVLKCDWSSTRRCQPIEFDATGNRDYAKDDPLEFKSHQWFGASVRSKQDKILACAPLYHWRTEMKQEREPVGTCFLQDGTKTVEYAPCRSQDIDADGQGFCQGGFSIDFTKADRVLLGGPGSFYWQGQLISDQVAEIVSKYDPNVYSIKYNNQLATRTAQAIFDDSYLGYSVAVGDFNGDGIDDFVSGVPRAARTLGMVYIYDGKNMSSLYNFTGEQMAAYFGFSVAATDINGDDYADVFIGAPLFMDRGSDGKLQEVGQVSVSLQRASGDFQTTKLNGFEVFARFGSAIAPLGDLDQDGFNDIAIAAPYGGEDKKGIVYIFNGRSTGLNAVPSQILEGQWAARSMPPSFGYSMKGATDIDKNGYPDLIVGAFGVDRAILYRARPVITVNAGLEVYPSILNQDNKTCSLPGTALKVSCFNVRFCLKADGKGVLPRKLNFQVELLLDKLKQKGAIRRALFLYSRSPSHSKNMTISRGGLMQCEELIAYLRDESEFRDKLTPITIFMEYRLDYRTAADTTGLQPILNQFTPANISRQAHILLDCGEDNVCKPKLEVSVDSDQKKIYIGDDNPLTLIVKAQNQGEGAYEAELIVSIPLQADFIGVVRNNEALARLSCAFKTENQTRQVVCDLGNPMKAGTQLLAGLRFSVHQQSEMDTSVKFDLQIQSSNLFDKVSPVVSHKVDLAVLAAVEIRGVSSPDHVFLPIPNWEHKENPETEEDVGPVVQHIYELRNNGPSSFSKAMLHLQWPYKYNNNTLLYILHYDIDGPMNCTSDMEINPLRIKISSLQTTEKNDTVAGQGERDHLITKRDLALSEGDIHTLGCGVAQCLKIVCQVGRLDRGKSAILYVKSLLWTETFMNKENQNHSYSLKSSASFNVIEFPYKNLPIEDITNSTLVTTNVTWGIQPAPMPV
T4 sequence (P18564 22-707, chain 2 of 2): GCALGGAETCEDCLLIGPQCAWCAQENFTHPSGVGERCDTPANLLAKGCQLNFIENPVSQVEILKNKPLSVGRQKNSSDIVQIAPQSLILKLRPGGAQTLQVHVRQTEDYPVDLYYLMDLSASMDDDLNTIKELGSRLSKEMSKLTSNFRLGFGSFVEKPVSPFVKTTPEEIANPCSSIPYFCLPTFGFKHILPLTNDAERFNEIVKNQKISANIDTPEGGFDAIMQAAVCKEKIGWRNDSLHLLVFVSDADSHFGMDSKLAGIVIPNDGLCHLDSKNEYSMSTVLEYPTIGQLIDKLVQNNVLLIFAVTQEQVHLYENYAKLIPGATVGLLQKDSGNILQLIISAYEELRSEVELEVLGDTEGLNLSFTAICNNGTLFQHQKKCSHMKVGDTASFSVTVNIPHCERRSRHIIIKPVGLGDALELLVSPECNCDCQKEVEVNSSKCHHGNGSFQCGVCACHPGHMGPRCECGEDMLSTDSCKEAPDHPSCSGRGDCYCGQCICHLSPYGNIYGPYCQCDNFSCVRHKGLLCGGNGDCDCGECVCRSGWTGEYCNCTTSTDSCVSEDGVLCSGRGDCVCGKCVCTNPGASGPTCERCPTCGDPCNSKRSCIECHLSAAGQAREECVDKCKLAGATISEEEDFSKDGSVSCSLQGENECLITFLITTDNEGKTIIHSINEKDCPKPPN
T1 sequence (P06756 31-992, chain 1 of 2): as the sequence (P06756 31-992, chain 1 of 2) above
T1 sequence (P26012 43-684, chain 2 of 2): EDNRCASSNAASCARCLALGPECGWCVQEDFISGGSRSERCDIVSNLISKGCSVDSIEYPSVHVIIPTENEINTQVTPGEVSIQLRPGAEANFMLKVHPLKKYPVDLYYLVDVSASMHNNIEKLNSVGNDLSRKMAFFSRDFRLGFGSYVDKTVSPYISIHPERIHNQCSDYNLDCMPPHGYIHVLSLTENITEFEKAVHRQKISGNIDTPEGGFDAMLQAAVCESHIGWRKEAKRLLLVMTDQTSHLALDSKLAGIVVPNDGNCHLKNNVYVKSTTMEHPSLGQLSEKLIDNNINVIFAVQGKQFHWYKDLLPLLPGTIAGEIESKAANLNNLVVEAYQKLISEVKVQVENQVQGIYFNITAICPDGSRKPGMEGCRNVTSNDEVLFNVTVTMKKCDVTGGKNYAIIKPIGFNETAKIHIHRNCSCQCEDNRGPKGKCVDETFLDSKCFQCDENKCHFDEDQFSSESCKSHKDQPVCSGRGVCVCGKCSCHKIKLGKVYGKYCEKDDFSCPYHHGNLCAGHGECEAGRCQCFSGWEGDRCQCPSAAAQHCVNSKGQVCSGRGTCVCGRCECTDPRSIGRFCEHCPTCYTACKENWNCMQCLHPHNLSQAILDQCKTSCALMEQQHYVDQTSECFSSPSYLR
T2 sequence (P06756 31-992, chain 1 of 2): as the sequence (P06756 31-992, chain 1 of 2) above
T2 sequence (P05106 27-718, chain 2 of 2): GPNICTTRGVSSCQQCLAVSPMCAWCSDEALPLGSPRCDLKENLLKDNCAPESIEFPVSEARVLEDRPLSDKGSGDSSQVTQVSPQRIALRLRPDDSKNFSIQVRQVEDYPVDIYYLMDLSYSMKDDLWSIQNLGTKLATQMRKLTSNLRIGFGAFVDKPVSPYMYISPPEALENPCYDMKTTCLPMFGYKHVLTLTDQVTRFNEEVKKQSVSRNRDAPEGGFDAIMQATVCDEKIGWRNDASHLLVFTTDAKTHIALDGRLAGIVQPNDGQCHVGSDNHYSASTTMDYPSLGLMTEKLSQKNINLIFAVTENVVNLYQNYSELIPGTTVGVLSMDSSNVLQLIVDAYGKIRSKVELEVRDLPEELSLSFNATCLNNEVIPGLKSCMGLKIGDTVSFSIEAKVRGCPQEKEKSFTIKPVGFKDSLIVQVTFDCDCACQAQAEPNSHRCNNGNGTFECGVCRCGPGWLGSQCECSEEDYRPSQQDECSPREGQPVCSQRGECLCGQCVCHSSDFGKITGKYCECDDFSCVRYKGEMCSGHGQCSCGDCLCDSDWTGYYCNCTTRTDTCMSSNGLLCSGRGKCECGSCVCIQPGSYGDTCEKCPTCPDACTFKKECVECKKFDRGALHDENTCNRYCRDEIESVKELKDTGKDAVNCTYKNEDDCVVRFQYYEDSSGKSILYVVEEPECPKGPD

Binder	IC50 [1] [nM]	IC50 [2] [nM]	IC50 [3] [nM]	IC50 [4] [nM]	IC50 [5] [nM]	IC50 [6] [nM]	IC50 [7] [nM]	Ratio [8]
B1	115	76.7	454	76.7	–	–	–	–
B2	–	–	–	85.1	24.2	–	–	–
B3	–	–	–	50.4	11.4	–	–	–
B4	–	–	–	–	–	8 to 100	6 to 33	–
B5	–	–	–	204	0.12	–	–	–
B6	–	–	–	432	0.4	–	–	–
B7	42.9	106	266	106	–	–	–	–
B8	49.3	302	831	302	–	–	–	–
B9	10.4	104	38.4	104	–	–	–	–
B10	127	–	254	–	–	–	–	–
B11	–	–	–	2.4	14.7	–	–	6.1
